Data reported in US20230094162A1 (MacroGenics, published 2023).
Read-outs that look alike come from different tables or passages of the source. One block for each binder: values may come before it.

Key:
[1] = target: T1, His-tagged soluble human CD137 fusion protein (huCD137) (human, UniProt Q07011 24-186); assay: ELISA, plate-coated soluble human CD137
T1 construct: extracellular domain; The ELISA method allows a His or a human Fc fusion; also called shCD137 His; huCD137-His; not shown: His tag

[2] = target: T1, His-tagged soluble human CD137 fusion …; assay: BIACORE SPR, antibody captured on anti-human Fc, soluble CD137 His as analyte, 1:1 model
Source text: The binding kinetics of the anti-CD137 antibodies (having human Fc regions) were investigated using BIACORE™ SPR analysis. The anti-CD137 antibodies were captured on a Fab′2 goat-anti-human Fc surface.

[3] = target: T2, soluble cynomolgus monkey CD137 (cyCD137) (cynomolgus monkey, UniProt A9YYE7 24-186); assay: ELISA, plate-coated soluble cynomolgus CD137
T2 construct: extracellular domain; also called scyCD137 His; scyCD137 hFc; not shown: His tag or human Fc Region

[4] = target: T3, CD137 expressed on the cell surface (CHO/CD137 cells) (UniProt Q07011 24-255, limits assumed); assay: flow cytometry on CHO/CD137 cells (Surface Binding)
T3 construct: whole, on cells; also called cell surface CD137; Jurkat-NF-κB-Luc reporter cells overexpressing CD137
Protocol: FACS analysis to evaluate the test articles for binding to cell surface CD137 was performed essentially as follows: 100 μL of CHO cells expressing CD137 (CHO/CD137) (1.0×10⁵ to 1×10⁶ cells/well) and 100 μL of serially diluted test article or control was added to each well of microtiter assay plate(s), mixed and incubated at RT for about 30 min. The cells were washed with FACS Buffer and secondary antibody (goat anti-human-APC, PE, or FITC) was then added to each well (1:1000), after which, the components were mixed and the wells were incubated at RT for about 30 min. Cells were washed and resuspended in 250 μL FACS Buffer and analyzed by flow cytometry (BD LSR Fortessa or FACSCanto II) for cell events collection. Data analysis were performed via FloJo v10.

[5] = target: T3, CD137 expressed on the cell surface …; assay: flow cytometry (FACS) on CHO cells expressing CD137, MFI
[6] = target: T4, PD-L1 expressed on the cell surface (CHO/PD-L1 cells) (UniProt Q9NZQ7 19-290); assay: cell-based or functional assay
[7] = target: T4, PD-L1 expressed on the cell surface …; assay: cell-based or functional assay; remark: listed apart in the source
[8] = target: T2, soluble cynomolgus monkey CD137 …; assay: ELISA, plate-coated soluble cynomolgus CD137, hybridoma supernatant
Protocol: (§1) ELISA assays to evaluate the test articles for CD137 binding were performed essentially as follows: flat bottom maxisorb 96-well plates were coated with soluble human or cynomolgus monkey CD137 (the extracellular domain of human or cynomolgus monkey CD137 fused to a His tag (shCD137 His or scyCD137 His) or to a human Fc Region (shCD137 hFc or scyCD137 hFc)), each at 0.5 or 1 μg/mL. The plates were washed, blocked with PBS buffer containing 0.5% bovine serum albumin and 0.1% Tween20, and incubated with a test article (e.g., cell supernatants or purified mAb). For the hybridoma supernatants anti-CD137 antibody was utilized at 1.0 μg/mL and six three-fold serial dilutions. The amount of test article binding to the immobilized CD137 (human or cynomolgus monkey) was assessed using a goat anti-mouse IgG-HRP secondary antibody. All samples were analyzed on a plate reader (Victor 2 Wallac, Perkin Elmer) and EC50 values were calculated from dose-response curves by nonlinear regression analysis.

[9] = target: T1, His-tagged soluble human CD137 fusion …; assay: ELISA, plate-coated soluble human CD137, hybridoma supernatant
Protocol: as §1

[10] = target: T4, PD-L1 expressed on the cell surface …; assay: flow cytometry (FACS) on CHO cells expressing PD-L1, MFI
Protocol: (§2) FACS analysis to evaluate the test articles for binding to cell surface PD-L1 was performed essentially as follows: 100 μL of CHO cells expressing PD-L1 (CHO/PD-L1) (1.0×10⁵ to 1.0×10⁶ cells/well) and 100 μL of serially diluted test article was added to each well of microtiter assay plate(s), mixed and incubated at RT for about 30 min. The cells were washed with FACS Buffer and secondary antibody (goat anti-human-FITC, PE, or APC) was then added to each well, after which, the components were mixed and the wells were incubated at RT for about 30 min. Cells were washed and resuspended in 250 μL FACS Buffer and analyzed by flow cytometry (BD LSR Fortessa or FACSCanto II) for cell events collection. Data analysis were performed via FloJo v10.
Test articles were used at 10 μg/mL and five-fold serial dilutions for the FACS analysis and at 50 μg/mL and five-fold serial dilutions for the PD-L1 reporter assay.

[11] = target: T4, PD-L1 expressed on the cell surface …; assay: cell-based or functional assay; remark: listed apart in the source
[12] = target: T3, CD137 expressed on the cell surface …; assay: flow cytometry (FACS) on CHO cells expressing CD137, MFI; remark: listed apart in the source
[13] = target: T4, PD-L1 expressed on the cell surface …; assay: flow cytometry (FACS) on CHO cells expressing PD-L1, MFI; remark: listed apart in the source
Protocol: as §2

[14] = target: T4, PD-L1 expressed on the cell surface …; assay: cell-based or functional assay; remark: listed apart in the source

T3 sequence (Q07011 24-255 limits assumed): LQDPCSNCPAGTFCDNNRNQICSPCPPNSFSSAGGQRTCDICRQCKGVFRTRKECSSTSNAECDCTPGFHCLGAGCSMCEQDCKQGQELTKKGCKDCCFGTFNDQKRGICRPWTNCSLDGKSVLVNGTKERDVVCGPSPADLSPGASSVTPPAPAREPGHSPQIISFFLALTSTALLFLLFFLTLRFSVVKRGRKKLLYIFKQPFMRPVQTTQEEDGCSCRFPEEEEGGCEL
T4 sequence (Q9NZQ7 19-290): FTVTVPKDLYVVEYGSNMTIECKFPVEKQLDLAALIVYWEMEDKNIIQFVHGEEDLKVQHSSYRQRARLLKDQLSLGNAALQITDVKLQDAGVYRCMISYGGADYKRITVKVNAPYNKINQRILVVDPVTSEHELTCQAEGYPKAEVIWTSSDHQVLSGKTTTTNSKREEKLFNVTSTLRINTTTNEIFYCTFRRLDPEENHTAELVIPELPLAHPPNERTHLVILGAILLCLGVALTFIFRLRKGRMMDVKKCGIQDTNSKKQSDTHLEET
T1 sequence (Q07011 24-186): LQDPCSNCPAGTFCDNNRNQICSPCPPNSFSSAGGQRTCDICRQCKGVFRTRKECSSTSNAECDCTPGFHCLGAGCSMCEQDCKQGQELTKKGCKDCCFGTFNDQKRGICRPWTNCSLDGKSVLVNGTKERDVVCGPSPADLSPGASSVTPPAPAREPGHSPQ
T2 sequence (A9YYE7 entry or part of it): as the sequence (Q07011 24-186) above, with P4L, N19S, R50K, T66I, P67S, F69Y, G75E, V149A counted along it

- EC50 [1]: 0.034 µg/mL
- Kd [2]: 38 nM
- koff [2]: 0.025 s⁻¹
- kon [2]: 660000 M⁻¹ s⁻¹
- EC50 [3]: 0.044 µg/mL
- EC50 [4]: 0.01 µg/mL
B1: chCD137 MAB-3 (antibody, V domains shown)
VH: QVQLQQPGAELVRPGASVKLSCKASGYTFTSYWINWVKQRPGQGLEWIGNIYPSDSYTNYNQKFKDKATLTVDKSSSTAYMQLSSPTSEDSAVYYCTRDYGSSYSFDYWGQGTTLTVSS
VL: DIQMTQTTSSLSASLGDRVTISCRPSQDISNYLNWYQQKPDGTVKLLIYYTSRLRSGVPSRFSGSGSGTDYSLTISNLEQEDIATYFCQQGDTLPYTFGGGTKLEIK

- EC50 (read off the curve) [5]: ~0.01 µg/mL
- EC50 (read off the curve) [6]: ~0.2 µg/mL
- EC50 (read off the curve) [7]: ~0.4 µg/mL
B2: TRIDENT-A4 (bispecific antibody, human IgG1, kappa, L234A L235A)
chain 1: EIVMTQSPATLSLTPGERATLSCRASQSVSSNYLSWFQQIPGQAPRLLIYGASTRATGIPARFSGSGSGTDFTLTISSLQPEDFAVYYCQQDYDLPWTFGQGTKVEIKGGGSGGGGQVQLQESGPGLVKPSETLSLTCTVSGGSISSYYWSWIRQPPGKGLEWIGRIYTSGSTNYNPSLKSRVTMSVDTSKNQFSLKLSSVTAADTAVYYCARDGWYDEDYNYYGMDVWGQGTTVTVSSGGCGGGEVAALEKEVAALEKEVAALEKEVAALEKGGGDKTHTCPPCPAPEAAGGPSVFLFPPKPKDTLYITREPEVTCVVVDVSHEDPEVKFNWYVDGVEVHNAKTKPREEQYNSTYRVVSVLTVLHQDWLNGKEYKCKVSNKALPAPIEKTISKAKGQPREPQVYTLPPSREEMTKNQVSLWCLVKGFYPSDIAVEWESNGQPENNYKTTPPVLDSDGSFFLYSKLTVDKSRWQQGNVFSCSVMHEALHNHYTQKSLSLSPGK
chain 2: EIVMTQSPATLSLTPGERATLSCRASQSVSSNYLSWFQQIPGQAPRLLIYGASTRATGIPARFSGSGSGTDFTLTISSLQPEDFAVYYCQQDYDLPWTFGQGTKVEIKGGGSGGGGQVQLQESGPGLVKPSETLSLTCTVSGGSISSYYWSWIRQPPGKGLEWIGRIYTSGSTNYNPSLKSRVTMSVDTSKNQFSLKLSSVTAADTAVYYCARDGWYDEDYNYYGMDVWGQGTTVTVSSGGCGGGKVAALKEKVAALKEKVAALKEKVAALKE
heavy: EVQLVESGGGLVQPGGSLRLSCAASGFTFSSYTMSWVRQAPGKGLEWVAYISIKGGTTYYPDTVKGRFTISRDNAKNSLYLQMNSLRAEDTAVYYCARQGLPYYGDYWGQGTLVTVSSASTKGPSVFPLAPSSKSTSGGTAALGCLVKDYFPEPVTVSWNSGALTSGVHTFPAVLQSSGLYSLSSVVTVPSSSLGTQTYICNVNHKPSNTKVDKRVEPKSCDKTHTCPPCPAPEAAGGPSVFLFPPKPKDTLYITREPEVTCVVVDVSHEDPEVKFNWYVDGVEVHNAKTKPREEQYNSTYRVVSVLTVLHQDWLNGKEYKCKVSNKALPAPIEKTISKAKGQPREPQVYTLPPSREEMTKNQVSLSCAVKGFYPSDIAVEWESNGQPENNYKTTPPVLDSDGSFFLVSKLTVDKSRWQQGNVFSCSVMHEALHNRYTQKSLSLSPGK
light: DIQMTQSPSSLSASVGDRVTITCKASQDVNEAVAWYQQKPGKAPKLLIYWASTRHTGVPSRFSGSGSGTDFTLTISSLQPEDFATYYCQQHYNTPLTFGQGTKVEIKRTVAAPSVFIFPPSDEQLKSGTASVVCLLNNFYPREAKVQWKVDNALQSGNSQESVTEQDSKDSTYSLSSTLTLSKADYEKHKVYACEVTHQGLSSPVTKSFNRGEC
notes: Trivalent; two CD137 MAB-6(1.1) sites, one hPD-L1 MAB-2(3.2) site

- EC50 [8]: 0.049 µg/mL
- Kd [2]: 16 nM
- koff [2]: 0.0067 s⁻¹
- kon [2]: 420000 M⁻¹ s⁻¹
- EC50 [4]: 0.021 µg/mL
- EC50 [9]: 0.038 µg/mL
B3: CD137 MAB-6 (1.1) (antibody, V domains shown)
VH: QVQLQESGPGLVKPSETLSLTCTVSGGSISSYYWSWIRQPPGKGLEWIGRIYTSGSTNYNPSLKSRVTMSVDTSKNQFSLKLSSVTAADTAVYYCARDGWYDEDYNYYGMDVWGQGTTVTVSS
VL: EIVMTQSPATLSLTPGERATLSCRASQSVSSNYLSWFQQIPGQAPRLLIYGASTRATGIPARFSGSGSGTDFTLTISSLQPEDFAVYYCQQDYDLPWTFGQGTKVEIK
notes: Fully human variable domains from a TRIANNI MOUSE hybridoma

- EC50 (read off the curve) [10]: ~0.04 µg/mL
- EC50 (read off the curve) [11]: ~0.08 µg/mL
- EC50 (read off the curve) [12]: ~0.06 µg/mL
- EC50 (read off the curve) [13]: ~0.02 µg/mL
- EC50 (read off the curve) [14]: ~0.2 µg/mL
B4: DART-A (bispecific antibody, IgG1)
chain 1: DIQMTQSPSSLSASVGDRVTITCKASQDVNTAVAWYQQKPGKAPKLLIYWASTRHTGVPSRFSGSGSGTDFTLTISSLQPEDFATYYCQQHYNTPLTFGQGTKVEIKGGGSGGGGQVQLQESGPGLVKPSETLSLTCTVSGGSISSYYWSWIRQPPGKGLEWIGRIYTSGSTNYNPSLKSRVTMSVDTSKNQFSLKLSSVTAADTAVYYCARDGWYDEDYNYYGMDVWGQGTTVTVSSGGCGGGEVAACEKEVAALEKEVAALEKEVAALEKLEPKSADKTHTCPPCPAPEAAGGPSVFLFPPKPKDTLYITREPEVTCVVVDVSHEDPEVKFNWYVDGVEVHNAKTKPREEQYNSTYRVVSVLTVLHQDWLNGKEYKCKVSNKALPAPIEKTISKAKGQPREPQVYTLPPSREEMTKNQVSLTCLVKGFYPSDIAVEWESNGQPENNYKTTPPVLDSDGSFFLYSKLTVDKSRWQQGNVFSCSVMHEALHNHYTQKSLSLSPG
chain 2: EIVMTQSPATLSLTPGERATLSCRASQSVSSNYLSWFQQIPGQAPRLLIYGASTRATGIPARFSGSGSGTDFTLTISSLQPEDFAVYYCQQDYDLPWTFGQGTKVEIKGGGSGGGGEVQLVESGGGLVQPGGSLRLSCAASGFTFSSYTMSWVRQAPGKGLEWVAYISIGGGTTYYPDTVKGRFTISRDNAKNTLYLQMNSLKTEDTAVYYCARQGLPYYFDYWGQGTLVTVSSGGCGGGKVAACKEKVAALKEKVAALKEKVAALKE
notes: Tetravalent CD137 x PD-L1 Fc diabody; CD137 MAB-6(1.1) and hPD-L1 MAB-2(1.1); IgG1 (AA/YTE)
